Results published in publication PMC11875817.

Key:
[1] = molecular target: Escherichia coli MG1655 thioredoxin reductase TrxB (Escherichia coli MG1655) (UniProt P0A9P4)
[2] = molecular target: Bacillus subtilis 168 thioredoxin reductase TrxB (Bacillus subtilis 168) (UniProt P80880)
Chain of UniProt P80880 (P80880 whole entry): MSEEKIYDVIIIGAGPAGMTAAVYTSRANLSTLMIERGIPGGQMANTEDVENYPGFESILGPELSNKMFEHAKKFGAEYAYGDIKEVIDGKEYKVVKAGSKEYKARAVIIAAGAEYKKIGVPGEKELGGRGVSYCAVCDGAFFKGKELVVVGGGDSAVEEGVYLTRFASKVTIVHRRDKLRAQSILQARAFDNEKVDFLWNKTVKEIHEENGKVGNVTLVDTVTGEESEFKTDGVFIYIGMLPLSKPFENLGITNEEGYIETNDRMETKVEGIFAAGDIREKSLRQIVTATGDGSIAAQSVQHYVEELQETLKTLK

Chain of UniProt P0A9P4 (P0A9P4 whole entry): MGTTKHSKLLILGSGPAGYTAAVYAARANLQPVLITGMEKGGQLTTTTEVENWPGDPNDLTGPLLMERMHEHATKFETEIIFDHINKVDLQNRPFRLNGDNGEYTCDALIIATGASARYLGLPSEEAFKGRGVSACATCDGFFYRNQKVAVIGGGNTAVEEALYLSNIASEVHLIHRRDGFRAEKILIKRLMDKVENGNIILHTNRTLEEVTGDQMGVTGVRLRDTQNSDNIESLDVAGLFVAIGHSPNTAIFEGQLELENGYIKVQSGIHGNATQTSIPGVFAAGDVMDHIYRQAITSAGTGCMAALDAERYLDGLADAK

Km of TrxB for its substrate TrxA; DTNB reduction assay (TNB release, A412), 50 nM ecTrxB, 0 to 6 μM ecTrxA, NADPH, no auranofin [1] [µM]	Km of TrxB for its substrate TrxA; DTNB reduction assay (TNB release, A412), 50 nM bsTrxB, 0 to 6 μM bsTrxA, NADPH, no auranofin [2] [µM]	Molecule
1.35		Escherichia coli K-12 MG1655 thioredoxin TrxA (from UniProt P0AA25 1-109) (natural protein)
	1.72	Bacillus subtilis 168 thioredoxin TrxA (natural protein) MAIVKATDQSFSAETSEGVVLADFWAPWCGPCKMIAPVLEELDQEMGDKLKIVKIDVDENQETAGKYGVMSIPTLLVLKDGEVVETSVGFKPKEALQELVNKHL
